Test results reported in patent publication US11672867B2, “Protein-templated self-assembly of a covalent polymer network for intracellular trafficking and traceless release” (University of Massachusetts, priority 2017, dated 2023).

Assays:
[1] = Release kinetics of proteins from nanoassemblies (DTT, SDS-PAGE); settings: reducing conditions (DTT)
Method: 30 μL of different samples containing NA-Empty^ED, NA-Empty^PEG, NA-Lys^ED, NA-Lys^PEG, NA-RNaseA^ED, NA-RNaseA^PEG, NA-CytC^ED and NA-CytC^PEG were mixed with 10 μL of loading buffer (DTT free) and 25 μL of each sample was loaded on acrylamide gel. For release experiment, identical protein-polymer conjugate samples were treated with 10 mM DTT and incubated at 37° C. for 4 h before subjecting to acrylamide gel electrophoresis. To calculate the amount of released protein from each sample, standard curves were generated from the known concentrations of pure protein samples loaded into the gel lanes. The gel image analysis and quantification were performed with Bio-Rad Image Lab™ software.
To monitor the release kinetics of proteins (lysozyme, RNase A and cytochrome C), 30 μL of NA-Lys^ED, NA-Lys^PEG, NA-RNaseA^ED, NA-RNaseA^PEG, NA-CytC^ED and NA-CytC^PEG samples were incubated at 37° C. with requisite amounts of 10 mM DTT for different time intervals. After each incubation time, samples were collected and immediately frozen at −20° C. Finally, all samples were subjected to SDS-PAGE analysis to quantify the amount of released proteins. Encapsulation and release studies with variations in DTT concentrations and crosslinker concentrations were carried out using similar experimental protocols.

[2] = Dynamic light scattering particle size; type: physicochemical; settings: 1 mg/mL, phosphate buffer pH 7.4
Method: (§1) Dynamic light scattering (DLS) and zeta potential measurements were performed using a Malvern Nanozetasizer-ZS. All samples were diluted with phosphate buffer pH 7.4 to adjust final concentration to 1 mg/mL.

HeLa cells = test: Cell viability with alamarBlue assay; type: cell-based, Human; settings: 72 h
Method: Human cervical carcinoma (HeLa) cells were cultured in T75 cell culture flask containing Dulbecco's Modified Eagle Medium/Nutrient Mixture F-12 (DMEM/F12) in a humidified incubator with 5% CO2 at 37° C. Culture media was supplemented with 10% fetal bovine serum (FBS), 1% L-glutamine and 1% antibiotic-antimycotic (100 units/mL of penicillin, 100 μg/mL of streptomycin, and 0.25 μg/mL of Amphotericin B).
HeLa cells were seeded into 96-well tissue culture plates at a density of 5000 cells/well/100 μL sample and incubated at 37° C. After 24 h, culture media was replaced and cells were treated with different concentrations of protein-polymer conjugates and control protein samples (0.1 mg/mL to 2 mg/mL protein concentration) in 100 μL media. All samples were incubated for 6 h at 37° C., then the media was replaced and incubated for another 66 h at 37° C. Afterwards media was replaced, washed with PBS buffer for three times and each well was treated with 100 μL 10% alamarBlue in media with serum. Finally, samples were incubated for 1 h and subjected to fluorescence measurement with SpectraMax® M5 at 560 nm excitation/590 nm emission wavelength in a black 96-well flat bottomed plate. Cellular viability of the small molecule byproducts were assessed using a similar protocol.

[3] = Zeta potential measurement; type: physicochemical; settings: 1 mg/mL, phosphate buffer pH 7.4
Method: as §1

[4] = Calculation of number of proteins per particle; type: physicochemical; settings: from DLS diameters, sphere packing efficiency ~74%
From the text: Calculation of Number of Proteins Per Particle: Example for NA-Lys^ED: Diameter of nanoassembly, D=9.7 nm, radius, R=4.85 nm Volume of each particle, VPPC=(4/3)πR^3=(4/3) π(4.85)^3 nm^3=477.6×10^−21 cm^3 Again, for lysozyme, diameter of protein, d=3.6 nm, radius, r=1.8 nm Volume of each protein, VLy=(4/3)πr^3=(4/3) π(1.8)^3 nm^3=24.4×10^−21 cm^3 Assuming that maximum sphere packing efficiency to be ˜74%,^ii number of lysozyme per nanoassembly to be=(477.6×10^−21/24.4×10^−21)×(0.74)=14 The results for all other nanoassemblies are summarized below: […]

[5] = Encapsulation efficacy and loading capacity (Pierce 660 nm Protein Assay of filtrate); type: physicochemical; settings: for Amount of protein encapsulated, μg (Initial dose = 1 mg): 10 mg P1, 1 mg protein, back-calculated from filtrate
Method: All nanoassemblies were evaluated for amount of protein encapsulation after conjugation and cross-linking process. Protein concentration in each sample was measured from the filtrate after crosslinking reaction and the amount of protein was back-calculated in the conjugate. An absorbance based assay (with Pierce™ 660 nm Protein Assay Reagent) was utilized to quantify the protein amount. The encapsulation efficiency (EE) and loading capacity (LC) were calculated based on the following formulas: […]

[6] = Crosslinking density from released 4-nitrophenol (UV-Vis, 400 nm); type: physicochemical; settings: adjusted for ~1% hydrolysis of control polymer
Method: The conjugation process and cross-linking density for the protein-polymer conjugates can be evaluated by UV-Vis spectroscopy. The amount of released 4-nitrophenol was monitored at its λmax 400 nm (measured molar extinction co-efficient≈12.14*10^3 L M^−1 cm^−1 at 400 nm). For each absorbance measurement, samples were diluted to twenty times, for e.g. 50 μL of sample was diluted 1 mL with distilled water. Cross-linking density was calculated by assuming that formation of a single chain crosslinking bond would require cleavage of two NPC units and produce two 4-nitrophenol molecules.
Ratio of NPC:PEG in the polymer, P1=50:50
Molecular weight of repeating NPC-unit=387 g/mol
Amount of polymer used=0.1 mg/mL for each absorbance measurement
From Beer-lamber's law: A=ε.c.1 and path-length=1 cm
Thus, moles of 4-nitro phenol in 1 mL solution=3.04*10^−8
This represents is 23.5 mol % of total NPC unit. As it is assumed that two 4-nitro phenol are released per crosslinking bond formation and NPC unit is 50 mol % of total polymer. Therefore, crosslinking density=23.5/2*0.5=5.9%
Hydrolysis from control polymer sample contributes ˜1% towards cross-linking density and adjusted for all calculations. Crosslinking densities for all other conjugates were calculated based on the above method and summarized below: […]

In the case of cytochrome C, the “Order of overall kinetics of protein release” value (shortened to “Order”) [1] is reported as “CytC<RNaseA<Lys”, the “Size, nm (hydrodynamic diameter, DLS)” value [2] is reported as 4.3 ± 0.1 nm and the “Size, nm (hydrodynamic diameter, DLS)” value ([2]; listed as native CytC) is reported as ~4 nm. For the same molecule, the Cell viability (HeLa cells) was “lack of toxicity”.

For lysozyme, the “Order” value [1] was “CytC<RNaseA<Lys” and the “Size, nm (hydrodynamic diameter, DLS)” value [2] was 3.6 ± 0.4 nm.

B1: ribonuclease A (protein, UniProt P61823 27-150, looked up)
Ribonuclease pancreatic: KETAAAKFERQHMDSSTSAASSSNYCNQMMKSRNLTKDRCKPVNTFVHESLADVQAVCSQKNVACKNGQTNCYQSYSTMSITDCRETGSSKYPNCAYKTTQANKHIIVACEGNPYVPVHFDASV
notes: native protein from Sigma-Aldrich, model cargo
With B1 the “Order” value [1] was “CytC<RNaseA<Lys” and the “Size, nm (hydrodynamic diameter, DLS)” value [2] was 3.3 ± 0.2 nm.

B2: NA-RNaseA^ED: RNase A conjugated to polymer P1 and crosslinked with ethylenediamine; nanoassembly (conjugate, UniProt P61823 27-150, looked up)
Ribonuclease pancreatic: B1 Ribonuclease pancreatic
modifications: polymer P1 conjugate, ethylenediamine-crosslinked nanoassembly
In the case of B2, the “Zeta potential, mV” value [3] is reported as −8.2 ± 0.7 mV, the “Size, nm (hydrodynamic diameter, DLS)” value [2] is reported as 9.1 ± 0.1 nm and the “# of Protein per PPC particle” value [4] is reported as 16. For the same molecule, the “Loading capacity (LC), %” value [5] was 5.6%, the “Amount of protein encapsulated, μg (Initial dose = 1 mg)” value [5] was 558 µg and the “Crosslinking density, %” value [6] was 5.1%.

B3: NA-RNaseA^PEG: RNase A conjugated to polymer P1 and crosslinked with (PEO)4-bis-amine; nanoassembly (conjugate, UniProt P61823 27-150, looked up)
Ribonuclease pancreatic: B1 Ribonuclease pancreatic
modifications: polymer P1 conjugate, PEO4-bis-amine crosslinked nanoassembly
notes: RNase A conjugated to polymer P1 and crosslinked with (PEO)4-bis-amine; nanoassembly
With B3 the “Zeta potential, mV” value [3] was −8.7 ± 0.7 mV, the “Size, nm (hydrodynamic diameter, DLS)” value [2] was 9.5 ± 0.1 nm and the “# of Protein per PPC particle” value [4] was 18. The “Loading capacity (LC), %” value [5] was 5.5%, the “Amount of protein encapsulated, μg (Initial dose = 1 mg)” value [5] was 553 µg and the “Crosslinking density, %” value [6] was 5.1%.
